Measured values reported in patent US20090286739A1 (FIBREX MEDICAL RESEARCH AND DEVELOPMENT, published 2009).
Non-standard residues stand in square brackets, D forms with d. Primed or numbered codes have the meaning given here. No end group written: not given here. Haic′ = not defined here; Acdn = not defined here

What follows are binders tested against T1, vascular endothelial (VE) cadherin (human, UniProt P33151 48-784) (assay: cell-based or functional assay).
T1 sequence (looked up): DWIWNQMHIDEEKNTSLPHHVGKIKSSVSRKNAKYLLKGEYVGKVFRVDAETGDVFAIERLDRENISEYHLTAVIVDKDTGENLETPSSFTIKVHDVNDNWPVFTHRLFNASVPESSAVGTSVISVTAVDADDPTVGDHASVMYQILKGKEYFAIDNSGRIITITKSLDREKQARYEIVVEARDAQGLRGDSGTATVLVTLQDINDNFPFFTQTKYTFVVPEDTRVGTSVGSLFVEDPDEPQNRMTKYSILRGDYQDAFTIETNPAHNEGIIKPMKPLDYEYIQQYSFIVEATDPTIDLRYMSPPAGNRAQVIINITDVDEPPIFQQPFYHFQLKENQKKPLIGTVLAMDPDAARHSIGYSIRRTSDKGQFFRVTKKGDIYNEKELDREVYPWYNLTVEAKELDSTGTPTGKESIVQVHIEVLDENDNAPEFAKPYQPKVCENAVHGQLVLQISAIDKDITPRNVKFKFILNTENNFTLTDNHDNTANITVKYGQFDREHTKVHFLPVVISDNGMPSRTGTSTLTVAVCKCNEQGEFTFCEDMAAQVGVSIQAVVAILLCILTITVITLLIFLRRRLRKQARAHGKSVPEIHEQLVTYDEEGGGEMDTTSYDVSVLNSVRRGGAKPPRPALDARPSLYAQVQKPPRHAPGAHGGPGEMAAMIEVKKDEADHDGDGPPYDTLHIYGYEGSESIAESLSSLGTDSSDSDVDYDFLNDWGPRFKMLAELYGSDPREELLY

Binder | Relative RhoA stimulation compared to unstimulated control
GHRPLDK[(1S,2R)Achc]ISGGGYR (not fully specified; printed as Gly-His-Arg-Pro-Leu-Asp-Lys-(1S,2R)Achc-Ile-Ser-Gly-Gly-Gly-Tyr-Arg) [Gly-His-Arg-Pro-Leu-Asp-Lys-(1S,2R)Achc-Ile-Ser-Gly-Gly-Gly-Tyr-Arg] | 1.5 fold of unstimulated control
GHRPLDK[Acdn]ISGGGYR-NH2 (reading uncertain; also: printed as Gly-His-Arg-Pro-Leu-Asp-Lys-Acdn-Ile-Ser-Gly-Gly-Gly-Tyr-Arg-NH2) [Gly-His-Arg-Pro-Leu-Asp-Lys-Acdn-Ile-Ser-Gly-Gly-Gly-Tyr-Arg] | 1.3 fold of unstimulated control
GHRPLDK[cis‑4‑Acha]ISGGGYR [Gly-His-Arg-Pro-Leu-Asp-Lys-(cis-4-Acha)-Ile-Ser-Gly-Gly-Gly-Tyr-Arg] | 1 fold of unstimulated control
GHRPLDK[Haic′]ISGGGYR [Gly-His-Arg-Pro-Leu-Asp-Lys-Haic-Ile-Ser-Gly-Gly-Gly-Tyr-Arg] | 1.3 fold of unstimulated control
